Here are results for one molecule from patent publication US20090297503A1 (Chugai, published 2009).

A value given as a limit tells only on which side of the number the result lay.

For experiment [1], the target named is T1, Factor VIII heavy chain (human, UniProt P00451 20-1667, limits assumed).
T1 construct: only the heavy chain part stood in the assay; also called HCh
The experiment in a line: ELISA: Factor VIII heavy chain (50 nM) coated on microtiter wells, biotinylated moAb216 added, detected with peroxidase-conjugated streptavidin, absorbance at 492 nm. Here is the method: (§1) Microtiter wells were coated with Factor VIII or its subunit (50 nM) in 20 mM Tris, and 0.15 M NaCl, pH 7.4, overnight at 4° C. The wells were washed with PBS containing 0.01% Tween 20 and were blocked with PBS containing 5% HSA for two hours at 37° C. The indicated concentrations of biotinylated-moAb216 were then added in 20 mM HEPES, 0.1 M NaCl, 5 mM CaCl₂, and 0.01% Tween 20, pH 7.2 (HBS-buffer) containing 1% HSA for two hours at 37° C. Bound IgG was quantified by the addition of peroxidase-conjugated streptavidin and O-phenylenediamine dihydrochloride substrate. Reactions were stopped by the addition of 2 M H₂SO₄, and absorbance was measured at 492 nm. The amount of nonspecific binding of anti-mouse peroxidase-conjugated IgG in the absence of moAb216 was <5% of the total signal. Specific binding was recorded after subtracting the nonspecific binding.
(ELISA stands for enzyme-linked immunosorbent assay.)

The target of the next experiment is T2, Factor VIII light chain (human, UniProt P00451 1668-2351).
T2 construct: only the light chain part stood in the assay; also called LCh
T2 sequence: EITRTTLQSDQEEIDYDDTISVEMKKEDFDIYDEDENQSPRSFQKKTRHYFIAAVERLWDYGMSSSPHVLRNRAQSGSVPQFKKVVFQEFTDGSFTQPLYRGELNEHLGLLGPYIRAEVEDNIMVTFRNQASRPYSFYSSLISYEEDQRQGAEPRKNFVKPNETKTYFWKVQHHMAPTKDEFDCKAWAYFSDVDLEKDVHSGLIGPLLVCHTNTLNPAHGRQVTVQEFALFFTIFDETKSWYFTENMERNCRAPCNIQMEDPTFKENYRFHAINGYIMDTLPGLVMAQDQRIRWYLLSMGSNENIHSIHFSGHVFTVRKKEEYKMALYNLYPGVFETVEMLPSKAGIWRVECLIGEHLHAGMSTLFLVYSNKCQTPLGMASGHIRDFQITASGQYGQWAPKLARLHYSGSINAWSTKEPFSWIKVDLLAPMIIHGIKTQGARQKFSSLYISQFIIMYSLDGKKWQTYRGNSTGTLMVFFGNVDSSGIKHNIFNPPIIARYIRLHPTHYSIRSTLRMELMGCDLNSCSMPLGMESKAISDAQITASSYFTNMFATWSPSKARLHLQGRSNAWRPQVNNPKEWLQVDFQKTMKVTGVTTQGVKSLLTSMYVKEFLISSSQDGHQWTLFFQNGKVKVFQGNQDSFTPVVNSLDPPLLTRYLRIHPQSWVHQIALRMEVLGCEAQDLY
The experiment can be described thus: ELISA: Factor VIII light chain (50 nM) coated on microtiter wells, biotinylated moAb216 added, detected with peroxidase-conjugated streptavidin, absorbance at 492 nm. As for the experimental part: as §1

The target of experiment [2] is T3, Factor VIII A2 subunit (human, UniProt P00451 392-759).
T3 construct: only the A2 subunit stood in the assay; also called A2 domain
T3 sequence: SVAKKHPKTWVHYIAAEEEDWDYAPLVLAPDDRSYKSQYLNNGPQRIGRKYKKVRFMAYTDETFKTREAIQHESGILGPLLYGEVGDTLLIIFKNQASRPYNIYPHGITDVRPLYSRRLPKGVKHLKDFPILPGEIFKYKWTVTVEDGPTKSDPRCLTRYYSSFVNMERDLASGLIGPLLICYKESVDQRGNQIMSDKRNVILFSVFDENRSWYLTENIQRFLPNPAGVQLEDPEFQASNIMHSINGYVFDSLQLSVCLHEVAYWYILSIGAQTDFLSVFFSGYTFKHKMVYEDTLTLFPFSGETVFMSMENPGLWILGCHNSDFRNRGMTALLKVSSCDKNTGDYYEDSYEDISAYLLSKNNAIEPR
The experiment can be described thus: SPR (BIAcore X), moAb216 coupled to CM5 chip, A2 in flow, 37 C. Here is the method: (§2) The kinetics of moAb216 interaction with Factor VIII was determined by SPR-based assay using a BIAcore X instrument (Biacore AB, Uppsala, Sweden) as previously reported. moAb216 was covalently coupled to the surface of CM5 chip at a coupling density of up to 5 ng/mm². Binding (association) of the ligand was monitored in the running buffer (10 mM HEPES pH 7.4, 0.1 M NaCl, 1 mM CaCl₂, 0.005% polysorbate 20) for two minutes at a flow rate 20 μl/min. The dissociation of bound ligand was recorded over a two-minute period by replacing the ligand-containing buffer with buffer only. The level of nonspecific binding as a result of ligand binding to the uncoated chip was subtracted from the signal. Reactions were performed at 37° C. The rate constants for association (kₐₛₛₒ) and dissociation (kdiss) were determined by nonlinear regression analysis using the evaluation software provided by Biacore AB. The dissociation constant (Kd) was calculated as kdiss/kₐₛₛₒ.
(§3) Reactions were performed as described under “Materials and Methods”. Parameter values were calculated by nonlinear regression analysis using the evaluation software provided by Biacore AB. ^{#}Values were calculated as kdiss/kₐₛₛₒ. *not determined
Background: SPR reads the build-up and loss of mass on a sensor chip optically.

Experiment [3] addresses T4, recombinant human blood coagulation Factor VIII (Kogenate FS) (human, UniProt P00451 20-2351).
T4 construct: The background describes the protein as a heavy chain/light chain heterodimer and numbers 2,332 residues; the entry may also carry the signal peptide; also called F.VIII
The experiment in a line: SPR (BIAcore X), moAb216 coupled to CM5 chip, Factor VIII in flow, 37 C. As for the experimental part: as §2, §3

The target of experiment [4] is T4, recombinant human blood coagulation …. The experiment in a line: SPR (BIAcore X), moAb216 coupled to CM5 chip, Factor VIII in flow, 37 C; calculated as kdiss/kasso. Here is the method: as §2, §3
Experiment [5] shares this target. The experiment can be described thus: ELISA: Factor VIII (50 nM) coated on microtiter wells, biotinylated moAb216 added, detected with peroxidase-conjugated streptavidin, absorbance at 492 nm. Here is the method:
as §1

The target of experiment [6] is T1, Factor VIII heavy chain. The experiment can be described thus: SPR (BIAcore X), moAb216 coupled to CM5 chip, heavy chain in flow, 37 C; calculated as kdiss/kasso. As for the experimental part: as §2, §3
In experiment [7] the target is T3, Factor VIII A2 subunit. The experiment can be described thus: SPR (BIAcore X), moAb216 coupled to CM5 chip, A2 in flow, 37 C; calculated as kdiss/kasso. Here is the method: as §2, §3
The target of experiment [8] is T4, recombinant human blood coagulation …. The experiment can be described thus: cell-based or functional assay.
The next experiment has as its target T5, Factor VIII A1 subunit (human, UniProt P00451 20-391).
T5 construct: only the A1 subunit stood in the assay; also called A1 domain
T5 sequence: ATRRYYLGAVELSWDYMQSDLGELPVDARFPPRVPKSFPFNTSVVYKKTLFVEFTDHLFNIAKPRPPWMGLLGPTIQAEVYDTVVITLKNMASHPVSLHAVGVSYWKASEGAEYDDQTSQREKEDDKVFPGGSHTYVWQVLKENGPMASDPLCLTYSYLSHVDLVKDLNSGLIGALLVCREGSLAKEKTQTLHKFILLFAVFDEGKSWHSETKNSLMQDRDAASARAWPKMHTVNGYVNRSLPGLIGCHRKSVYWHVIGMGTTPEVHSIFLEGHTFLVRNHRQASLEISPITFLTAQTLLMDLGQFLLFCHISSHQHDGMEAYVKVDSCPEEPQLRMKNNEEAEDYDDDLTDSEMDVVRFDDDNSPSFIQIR
The experiment in a line: ELISA: Factor VIII A1 subunit (50 nM) coated on microtiter wells, biotinylated moAb216 added, detected with peroxidase-conjugated streptavidin, absorbance at 492 nm. Here is the method: as §1

Experiment [9] deals with T1, Factor VIII heavy chain. The experiment can be described thus: SPR (BIAcore X), moAb216 coupled to CM5 chip, heavy chain in flow, 37 C. As for the experimental part:
as §2, §3

B1: anti-Factor VIII monoclonal antibody moAb216 (antibody, V domains shown)
VH: EVRLVESGGGLVKPGGSLKLSCAASEFTFSSYSMSWVRQTPEKRLEWVASINSGGRTFYPDSVKGRFTISRDNARNILVLQMSSLRSEDTAMYYCARVIYYDYGAYALDYWGQGTSLTVSS
VL: EIVLTQSPALMAAYPGEKVTITCSVSSSISSSNLHWYQQKSETSPKLWIYGTSNLASGVPVRFSGSGSGTSYSLTISSMEAEDAATYYCQQWNIYPLTFGAGTKLELK
notes: It was biotinylated for the ELISAs and coupled covalently to a CM5 chip for SPR; also called moAb216 IgG; biotinylated moAb216
The term EC50 (read off the curve) denotes the concentration needed to bring the measured effect to its halfway point. One may read the koff as the rate constant with which the complex falls apart. The term kon denotes a measure of how fast the partners come together. By Kd is commonly meant a measure of binding affinity in units of concentration. Turning to B1, the “EC50 (read off the curve)” value is about 0.09 µg/mL with Factor VIII heavy chain [1] and about 0.08 µg/mL in [5]. For the same molecule, the binding result with Factor VIII light chain and with Factor VIII A1 subunit was “no binding (tested: 1.25 µg/ml)” throughout. The koff with Factor VIII A2 subunit [2] came out at 0.0002 s⁻¹; in experiment [3], 0.001 s⁻¹; with Factor VIII heavy chain [9], 0.0009 s⁻¹. The kon in the experiment with Factor VIII A2 subunit [2] came out at 238000 M⁻¹ s⁻¹; in experiment [3] it was 930000 M⁻¹ s⁻¹; with Factor VIII heavy chain [9], 294000 M⁻¹ s⁻¹. The results for the Kd (in experiment [4]; in the experiment with Factor VIII heavy chain [6]; with Factor VIII A2 subunit [7]) were 1.1 nM, 3 nM and 0.8 nM, respectively. In addition, the “percentage of Factor Xa cleavage at Arg372 (A2/A1-A2 ratio, densitometry)” value in experiment [8] was at most 2 times. Moreover, the “rate of thrombin cleavage at Arg372 (A2 product/A1-A2 substrate ratio, densitometry of Western blot)” value in experiment [8] was about 2 times.
